{"source": "paper PMC6200926", "about": "(The Journal of Biological Chemistry, 2018)", "binders": {"B1": {"name": "FLD21.140 (antibody, V domains shown)", "VH": "QVQLQESGPGLVKPSQTLSLTCTVSGGSISSGTYYWSWIRHHPGKGLEWIGYIYHSGSAYYNPSLESRVTMSVDTSKNQFSLKLSSVTAADTAIYYCARAENLLSPYLAEGFDPWGQGTLVTVSS", "VL": "not shown"}, "B2": {"name": "FLD21.140 Fab (Fab, V domains shown)", "VH": "B1 VH", "VL": "not shown"}, "B3": {"name": "AVFluIgG03 (antibody, V domains shown)", "VH": "EVQLLESGGGLVQPGGSLRVSCTNSGFTFSNYAMSWVRQAPGKGLEWVSAISGNGGSGTYYADSVKGRFTISRDNSKNTMYLQMNSLRAEDTAVYYCVRDDSYDGGGHYGLHNWFDSWGQGTLVTVSS", "VL": "SVLTQPPSVSGAPGQRVTISCTGSSSNIGAGYDVHWYQQLPGTAPKLLIYGNSNRPSGVPDRFSGSKSGTSASLAITGLQAEDEADYYCQSYDSSVVVFGGGTKLEIK"}, "B4": {"name": "AVFluIgG03 Fab (Fab, V domains shown)", "VH": "B3 VH", "VL": "B3 VL", "notes": "source: cut from the purified IgG with Lys-C"}}, "key": {"[1]": {"target": "T1, A/Thailand/1(KAN-1)/2004 HA globular head (Asp-55–Glu-271) (Influenza A virus …, strain)", "assay": "cell-based or functional assay"}, "[2]": {"target": "T2, A/Vietnam/1203/2004 HA globular head (Asp-55–Glu-271) (Influenza A virus A/Vietnam/1203/2004 …, UniProt Q5EP31, strain)", "assay": "cell-based or functional assay"}, "[3]": {"target": "A/Turkey/65596/2006 HA globular head (Asp-55–Glu-271) (Influenza A virus A/Turkey/65596/2006 …, strain)", "assay": "cell-based or functional assay"}, "[4]": {"target": "T1, A/Thailand/1(KAN-1)/2004 HA globular …", "assay": "SPR", "conditions": "both partners purified"}, "[5]": {"target": "T2, A/Vietnam/1203/2004 HA globular head …", "assay": "SPR", "conditions": "both partners purified"}, "[6]": {"target": "T3, A/Beijing/01/2003 HA globular head (Asp-55–Glu-271) (Influenza A virus A/Beijing/01/2003 …, UniProt A5YTS6, strain)", "assay": "cell-based or functional assay"}, "[7]": {"target": "T4, A/Anhui/1/2005 HA globular head (Asp-55–Glu-271) (Influenza A virus A/Anhui/1/2005 (H5N1), UniProt Q1WDM0, strain)", "assay": "cell-based or functional assay"}, "[8]": {"target": "T3, A/Beijing/01/2003 HA globular head …", "assay": "SPR", "conditions": "both partners purified"}, "[9]": {"target": "T4, A/Anhui/1/2005 HA globular head …", "assay": "SPR", "conditions": "both partners purified"}}}
{"binder": "B1", "values": [{"measurement": "neutralisation IC50, pseudovirus with the whole HA of this strain", "setting": "[1]", "result": 8, "unit": "ng/mL"}, {"measurement": "neutralisation IC50, pseudovirus with the whole HA of this strain", "setting": "[2]", "result": 1, "unit": "ng/mL"}, {"measurement": "neutralisation IC50, pseudovirus with the whole HA of this strain", "setting": "[3]", "result": 1, "unit": "ng/mL"}]}
{"binder": "B2", "values": [{"measurement": "Kd", "setting": "[4]", "result": 1, "unit": "nM"}, {"measurement": "Kd", "setting": "[5]", "result": 0.702, "unit": "nM"}]}
{"binder": "B3", "values": [{"measurement": "neutralisation IC50, pseudovirus with the whole HA of this strain", "setting": "[6]", "result": 3, "unit": "ng/mL"}, {"measurement": "neutralisation IC50, pseudovirus with the whole HA of this strain", "setting": "[7]", "result": 2, "unit": "ng/mL"}]}
{"binder": "B4", "values": [{"measurement": "Kd", "setting": "[8]", "result": 25, "unit": "nM"}, {"measurement": "Kd", "setting": "[9]", "result": 12.6, "unit": "nM"}]}
